These results are taken from PMC3696110, “Hsp70 Oligomerization Is Mediated by an Interaction between the Interdomain Linker and the Substrate-Binding Domain” (PLoS ONE, 2013).

Values joined by “and” are separate entries in the source; they are usually repeats but may differ in a detail not shown here. Equal values may be shown once.

One series concerns the target T1, FL-Hsp70 (Homo sapiens, UniProt P0DMV8).
T1 construct: 35% of full-length Hsp70 (FL-Hsp70) exists as oligomeric species; hexa-His (N, cleaved yes); made in house; host or cells: E. coli BL21 (DE3) Gold, pET-28b
Nature of the series: Fluorescence titration of dansyl-NR peptide binding. The conditions noted are these: 2 µM dansyl-NR peptide, fluorescence ex 330 nm; 50 mM Tris pH 7.4, 150 mM KCl, 5 mM MgCl2; 1 h at 25°C; single-site fit; average of two samples; read-out: Kd (apparent dissociation constant). On the procedure: (§1) The interaction between the different Hsp70 variants and the NR peptide was studied in 50 mM Tris buffer at pH 7.4, with 150 mM KCl, and 5 mM MgCl2 using fluorescence spectroscopy by titrating different concentrations of chaperone into a solution containing 2 µM dansyl-NR peptide (N-terminally labeled; Genemed Synthesis Inc., San Antonio, TX, USA) after incubating the mixtures for 1 h at 25°C. The concentration of dansyl-NR peptide was calculated using an extinction coefficient at 327 nm of 4300 M^-1.cm^-1 [39]. The fluorescence emission spectrum of each sample was recorded from 400 to 630 nm after excitation at 330 nm, and the data reported correspond to the average intensity at the maximum emission wavelength of two different samples for which ten spectra were recorded. The increase in fluorescence signal was plotted as a function of chaperone concentration (Figure S2), and analyzed assuming single-site binding using the following equation:
(§2) ΔF=ΔFmaxΘL=ΔFmax/2LT[(PT+LT+Kd)−(PT+LT+Kd)^2−4PTLT] (1)
(§3) where ΘL is the fraction of bound ligand, ΔF is the increase in fluorescence intensity observed at a given concentration of Hsp70 variant, ΔF max is the increase in fluorescence at saturation, L T and P T are the total ligand and protein concentration respectively, and K d is the apparent dissociation constant of the complex. The fraction of bound ligand was plotted as a function of protein concentration in order to compare affinities between the different chaperone variants.

The target in another series is T2, ΔLSBD641 (Homo sapiens, UniProt P0DMV8).
T2 construct: ΔLSBD641 (394-641), corresponding to SBD641 without the first ten residues of the interdomain linker; hexa-His (N, cleaved yes); made in house; host or cells: E. coli BL21 (DE3) Gold, pET-28b
Described as above. The conditions noted are these: 2 µM dansyl-NR peptide, fluorescence ex 330 nm; 50 mM Tris pH 7.4, 150 mM KCl, 5 mM MgCl2; 1 h at 25°C; single-site fit; average of two samples; read-out: Kd (apparent dissociation constant). On the procedure:
as §1, §2, §3

The next series concerns the target T3, SBD556 (Homo sapiens, UniProt P0DMV8, L542Y).
T3 construct: SBD556 (384-556), which lacks helices C, D and E and the C-terminal disordered region; hexa-His (N, cleaved yes); made in house; host or cells: E. coli BL21 (DE3) Gold, pET-28b
The series is described as above. On the procedure:
as §1, §2, §3

A further series deals with T4, SBD641 (Homo sapiens, UniProt P0DMV8).
T4 construct: SBD641 (384-641), corresponding to the full-length SBD; hexa-His (N, cleaved yes); made in house; host or cells: E. coli BL21 (DE3) Gold, pET-28b
Described as above. The conditions noted are these: 2 µM dansyl-NR peptide, fluorescence ex 330 nm; 50 mM Tris pH 7.4, 150 mM KCl, 5 mM MgCl2; 1 h at 25°C; single-site fit; average of two samples; read-out: Kd (apparent dissociation constant). Here is the method:
as §1, §2, §3

The conditions of series [1]: previously reported; ref [S3]; cited from earlier work. Here is the method: Supplementary file pone.0067961.s005.tif: Figure S4 Concentration dependency of the analytical SEC chromatograms of the 'C-term' variant. The protein concentrations used were 1µM (black line), 2µM (orange line), 5 µM (pink line), 10 µM (cyan line), 70 µM (red line) and 125 µM (green line). Essentially the same elution profile was found for all the protein concentrations used. At the top the chromatogram the previously reported Stokes radii of the standard proteins used to calibrate the column are reported: conalbumin (40.4 Å), ovalbumin (30.5 Å), carbonic anhydrase (23.6 Å) [S3], ribonuclease ...

Series [2] in a line: nESI-MS relative populations of oligomeric forms. The conditions noted are these: 6-15 µM protein, 150 mM ammonium acetate, pH 7.4, estimated error 5% (SD of 3-4 independent experiments). In kind it is physicochemical, human. Here is the method:
Prior to MS analysis, samples were buffer exchanged into 150 mM ammonium acetate, pH 7.4, using Micro Bio-spin 6 columns (Bio-Rad, Digilab Division, Cambridge, MA, USA). For all the experiments protein concentrations ranging from 6 to 18 µM were used. In the case of the substrate binding experiments, proteins were analyzed in the presence of a 1: 1 molar ratio of the NR peptide; this substrate concentration, lower than in the SEC experiments, was chosen to ensure adequate resolution of the various charge state series, which is critical for unambiguous assignment of substrate-bound states. Due to suppression effects during nESI ionization, a relatively limited set of molar ratios could be investigated by in this way.
nESI-MS spectra were obtained according to a previously published protocol on an orthogonal time-of-flight mass spectrometer with a Z-spray source (LCT, Waters, Manchester, UK) in positive ion mode using the following parameters: capillary voltage, 1500 V; sample cone voltage, 120 V (unless otherwise specified); extraction cone voltage, 1V; and ion transfer stage pressure, 8.8 mbar. Spectra were calibrated externally using a 33 mg/ml solution of cesium iodide. Data were acquired and processed with MassLynx software (Waters, Manchester, UK), and are shown with minimal smoothing and without background subtraction. The relative abundances of the different oligomeric states were estimated from the intensities of the most abundant charge states for each construct and are expressed as a percentage of the total intensity.

A short description of series [3]: SEC/DLS of oligomeric species. In kind it is physicochemical, human. The conditions noted are these: SEC, ΔLSBD641 at the same protein concentration, no NR peptide. Here is the method: Analytical SEC was performed at 4 °C using a Superdex 75 10/300 GL column (GE Healthcare LifeSciences, Little Chalfont, U.K.), which had previously been calibrated using a mixture of standard proteins (Gel Filtration LMW Calibration Kit; GE Healthcare LifeSciences, Little Chalfont, U.K.). Typically, samples of the various constructs contained 70 µM of protein in 50 mM Tris buffer at pH 7.4, with 150 mM KCl, 5 mM MgCl2 and were incubated for 15 min (unless otherwise specified) at room temperature before being loaded onto the column for analysis. To evaluate the reversibility of the oligomerization process, the different elution peaks obtained for each protein variant were subsequently analyzed after concentrating the different fractions using AmiconUltra-0.5, Ultracel-3 Membrane, 3 kDa (Millipore, Bedford, MA, USA). […]
Dynamic light scattering. Representative size distributions of SBD641 at different protein concentrations in Tris 50 mM, pH 7.4, 150 mM KCl, 5 mM MgCl2 were recorded at 25 °C on the Zetasizer Nano ZS instrument (Malvern Instruments Ltd.) at 633 nm after 1 h of incubation at room temperature. […] Some samples were analyzed after 1 h and 4 h incubation at room temperature and the same intensity size distributions were obtained. The samples were centrifuged for 15 min at 13200 rpm to remove dust particles and the scattered light was detected at an angle of 173°. […]

Series [4] can be described thus: Thermal denaturation monitored by far-UV CD. In kind it is physicochemical, human. On the procedure: Protein structural stability was analyzed by monitoring the CD signal at 222 nm upon thermal denaturation. Thermal runs were performed from 5 to 90 °C at a rate of 1 °C. min^-1. Data points were acquired every 0.1 °C with a response time of 2 s and a bandwidth of […]. After thermal denaturation, each protein sample was cooled to the starting temperature, and a second denaturation curve recorded in order to analyse the degree of reversibility of the denaturation process. Analysis of the thermal unfolding curves was performed assuming a three-state unfolding model.

A short description of series [5]: Analytical SEC relative populations of oligomeric forms. In kind it is physicochemical, human. The conditions noted are these: Superdex 75, 4 °C, 50 mM Tris pH 7.4, 150 mM KCl. On the procedure:
Analytical SEC was performed at 4 °C using a Superdex 75 10/300 GL column (GE Healthcare LifeSciences, Little Chalfont, U.K.), which had previously been calibrated using a mixture of standard proteins (Gel Filtration LMW Calibration Kit; GE Healthcare LifeSciences, Little Chalfont, U.K.). Typically, samples of the various constructs contained 70 µM of protein in 50 mM Tris buffer at pH 7.4, with 150 mM KCl, 5 mM MgCl2 and were incubated for 15 min (unless otherwise specified) at room temperature before being loaded onto the column for analysis. To evaluate the reversibility of the oligomerization process, the different elution peaks obtained for each protein variant were subsequently analyzed after concentrating the different fractions using AmiconUltra-0.5, Ultracel-3 Membrane, 3 kDa (Millipore, Bedford, MA, USA). A similar analysis was also performed at 6 µM concentration for all the protein variants to allow for a direct comparison between the results obtained by SEC and MS experiments.
The influence of substrate binding on the oligomerization properties of all the variants was examined by using the well-characterized Hsp70 substrate, the NR peptide (NRLLLTG, Genemed Synthesis Inc., San Antonio, TX, USA). A 14-fold excess of the peptide was added in each case to a fresh protein sample, incubated for 1 h at room temperature, unless otherwise specified, and then loaded onto the Superdex 75 10/300 GL column for analysis. The relative quantities of the different protein species were estimated by analysing the chromatographic profile using a Gaussian function for each elution peak (OriginPro 8, Originlab, Northampton, MA, USA) and measuring the relative area under each peak.

The nature of series [6]: Secondary structure content from far-UV CD. In kind it is physicochemical, human. The conditions noted are these: K2D software; 20 µM protein, 7 mM Tris pH 7.4, 170 mM KCl, 5 mM MgCl2; 25 °C. Here is the method:
Far-UV CD spectra for all protein variants were recorded using a Jasco J-810 spectropolarimeter equipped with a Peltier holder, using a 0.1 cm path length cuvette. Typically, samples contained 20 µM protein in 7 mM Tris buffer at pH 7.4, containing 170 mM KCl and 5 mM MgCl2. The far-UV CD spectra of all the variants in their native, thermally denatured and refolded states were recorded from 198 to 250 nm, and the spectrum of the buffer was systematically subtracted from the spectra of all protein samples. The secondary structure content was estimated from the far-UV CD spectrum for each protein variant using K2D software.

The mark [7] stands for this setting: 70 µM protein, 5 mM MgCl2, 15 min at room temperature, estimated error 3.5% (SD of 3-4 independent experiments).
Where [8] appears, read: 6-15 µM protein, 5 mM MgCl2, estimated error 3.5% (SD of 3-4 independent experiments).

T1 sequence (P0DMV8 whole entry): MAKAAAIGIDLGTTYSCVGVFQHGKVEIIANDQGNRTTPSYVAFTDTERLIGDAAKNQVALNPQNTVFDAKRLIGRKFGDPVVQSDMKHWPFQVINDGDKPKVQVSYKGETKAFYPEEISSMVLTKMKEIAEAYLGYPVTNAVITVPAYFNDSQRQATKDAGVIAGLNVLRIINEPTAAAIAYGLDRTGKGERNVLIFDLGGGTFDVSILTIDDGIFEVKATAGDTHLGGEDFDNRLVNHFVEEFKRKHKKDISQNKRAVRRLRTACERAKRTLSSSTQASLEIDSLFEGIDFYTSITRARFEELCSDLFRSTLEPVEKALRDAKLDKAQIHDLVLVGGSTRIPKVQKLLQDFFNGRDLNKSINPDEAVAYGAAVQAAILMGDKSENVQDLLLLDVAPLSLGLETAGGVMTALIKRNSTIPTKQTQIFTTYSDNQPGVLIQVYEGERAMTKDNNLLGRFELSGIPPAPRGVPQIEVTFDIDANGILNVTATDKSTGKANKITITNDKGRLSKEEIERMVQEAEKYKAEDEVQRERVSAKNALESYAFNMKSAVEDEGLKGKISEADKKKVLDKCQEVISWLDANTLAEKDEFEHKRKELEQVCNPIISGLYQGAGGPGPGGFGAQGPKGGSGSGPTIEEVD
T3 sequence (P0DMV8 384-556 L542Y): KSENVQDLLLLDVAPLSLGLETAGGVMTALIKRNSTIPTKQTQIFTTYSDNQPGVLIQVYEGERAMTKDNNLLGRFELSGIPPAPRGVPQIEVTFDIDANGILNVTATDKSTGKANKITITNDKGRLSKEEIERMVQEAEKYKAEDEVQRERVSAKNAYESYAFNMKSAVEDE
T4 sequence (P0DMV8 384-641): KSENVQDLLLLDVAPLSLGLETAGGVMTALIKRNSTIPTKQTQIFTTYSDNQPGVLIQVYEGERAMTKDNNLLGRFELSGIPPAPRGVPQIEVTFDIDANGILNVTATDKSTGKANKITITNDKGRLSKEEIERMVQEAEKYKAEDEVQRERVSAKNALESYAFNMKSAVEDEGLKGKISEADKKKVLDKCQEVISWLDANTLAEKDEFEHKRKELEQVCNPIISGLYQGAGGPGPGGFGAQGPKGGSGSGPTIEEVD
T2 sequence (P0DMV8 395-641, stated change not applied): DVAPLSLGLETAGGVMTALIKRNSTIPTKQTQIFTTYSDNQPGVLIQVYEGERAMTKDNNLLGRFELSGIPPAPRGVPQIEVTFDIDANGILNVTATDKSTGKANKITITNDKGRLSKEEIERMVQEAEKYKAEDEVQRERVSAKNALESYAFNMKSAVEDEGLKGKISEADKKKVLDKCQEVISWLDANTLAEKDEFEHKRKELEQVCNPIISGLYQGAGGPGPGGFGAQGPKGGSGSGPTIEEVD

Consider `CC(C)C[C@H](NC(=O)[C@H](CC(C)C)NC(=O)[C@H](CCCNC(=N)N)NC(=O)[C@@H](N)CC(N)=O)C(=O)N[C@@H](CC(C)C)C(=O)N[C@H](C(=O)NCC(=O)O)[C@@H](C)O` [NR peptide, NRLLLTG], for which the Kd at FL-Hsp70 is 9 µM and 8 to 10 µM; at ΔLSBD641, 8 ± 2 µM; at SBD556 (2 µM dansyl-NR peptide, fluorescence ex 330 nm, 50 mM Tris pH 7.4, 150 mM KCl, 5 mM MgCl2, 1 h at 25°C, single-site fit, average of two samples, read-out: Kd (apparent dissociation constant)), 53 ± 16 µM; at SBD641, 11 µM and 1 to 10 µM. For the same molecule, the “Reduction of fluorescence intensity at saturation (Fmax)” value at SBD556 (fluorescence titration, SBD556 vs other chaperone variants) is on record as ~25%.

carbonic anhydrase [reference compound]: the “Stokes radius of SEC standard protein” value in [1] was 23.6 Å.

For “ΔLSBD641: SBD641 without the first ten residues of the interdomain linker (SENVQDLLLL), residues 394-641”, in series [2], the Dimer population was 8%, the Monomer population is given as > 90%, the Total oligomer population is 8% and the Trimer population is listed as 0%. For the same molecule, in [2] (listed as ∆LSBD641), the Monomer population was 92%. Besides, the Oligomer fraction entry in [3] was “ca. 0.1”. The “∆Hm, 1st transition” value in series [4] (CD 222 nm, 20 µM protein, 7 mM Tris pH 7.4, 170 mM KCl, 5 mM MgCl2, three-state fit (C-term two-state), SE of fit) stood at 45.6 ± 2.4 kcal/mol. For the same molecule, the “∆Hm, 2nd transition” value in [4] (CD 222 nm, 20 µM protein, 7 mM Tris pH 7.4, 170 mM KCl, 5 mM MgCl2, three-state fit, SE of fit) worked out at 61.0 ± 1.1 kcal/mol. In addition, the “Tm, 1st transition” value in series [4] (CD 222 nm, 5 to 90 °C at 1 °C/min, 20 µM protein, 7 mM Tris pH 7.4, 170 mM KCl, 5 mM MgCl2, three-state fit (C-term two-state), SE of fit) was 44.9 ± 0.3 °C. Moreover, in [4] (CD 222 nm, 5 to 90 °C at 1 °C/min, 20 µM protein, 7 mM Tris pH 7.4, 170 mM KCl, 5 mM MgCl2, three-state fit, SE of fit), the “Tm, 2nd transition” value worked out at 72.3 ± 0.1 °C. Also, in series [4] (far-UV CD), the “Degree of irreversibility of overall protein thermal denaturation” value is “exactly the same behaviour”. For the same molecule, in [5] (setting [7]), the Dimer population is listed as 14%, the Monomer population is recorded as 86% and the Total oligomer population was 14%. Besides, in series [5] (setting [8]), the Dimer population was 9%, the Monomer population is reported as > 90% and the Total oligomer population is on record as 9%. Also, in series [5] (6-15 µM protein, 5 mM MgCl2, estimated error 3.5% (SD of 3-4 independent experiments), listed as ∆LSBD641), the Monomer population is on record as 91%. Further, in series [6], the “Random-coil content estimated from far-UV CD” value is recorded as 47%, the “α-helix content estimated from far-UV CD” value is given as 35% and the “β-sheet content estimated from far-UV CD” value is 18%.
